# Reference: US20030040043A1 (published 2003)
# Numbering of substitutions follows the chain as printed. Names may count otherwise.
# B1: GAL4ad-FtsZ^D373G fusion (pGAD424) (other)
# chain: MFEPMELTNDAVIKVIGVGGGGGNAVEHMVRERIEGVEFFAVNTDAQALRKTAVGQTIQIGSGITKGLGAGANPEVGRNAADEDRDALRAALEGADMVFIAAGMGGGTGTGAAPVVAEVAKDLGILTVAVVTKPFNFEGKKRMAFAEQGITELSKHVDSLITIPNDKLLKVLGRGISLLDAFGAANDVLKGAVQGIAELITRPGLMNVDFADVRTVMSEMGYAMMGSGVASGEDRAEEAAEMAISSPLLEDIDLSGARGVLVNITAGFDLRLDEFETVGNTIRAFASDNATVVIGTSLDPDMNDELRVTVVATGIGMDKRPEITLVTNKQVQQPVMDRYQQHGMAPLTQEQKPVAKVVNDNAPQTAKEPDYLGIPAFLRKQAD
# notes: also called pGAD424-FtsZ^D373G; SHp201
# B2: GAL4ad-FtsZ^D373G,P375L fusion (pGAD424) (other)
# chain: B1 chain with P375L
# notes: also called pGAD424-FtsZ^D373G,P375L; SHp203
# Biological target: T1, GAL4bd-FtsA fusion (E. coli, UniProt P04386 1-147; P0ABH0 1-420)
# T1 construct: also called pAS2-1-FtsA; SHp100
# Experiment: yeast two-hybrid, GAL4 system, plates lacking histidine and AT
row,Binder,binding result
1,B1,no binding
2,B2,no binding
